# Values of other authors in article PMC2996745.
# pKd: −log10 of the molar value.
# Target: VEGFR2 (flk-1) (Homo sapiens) (UniProt P35968)
# UniProt P35968, sequence (P35968 20-1356): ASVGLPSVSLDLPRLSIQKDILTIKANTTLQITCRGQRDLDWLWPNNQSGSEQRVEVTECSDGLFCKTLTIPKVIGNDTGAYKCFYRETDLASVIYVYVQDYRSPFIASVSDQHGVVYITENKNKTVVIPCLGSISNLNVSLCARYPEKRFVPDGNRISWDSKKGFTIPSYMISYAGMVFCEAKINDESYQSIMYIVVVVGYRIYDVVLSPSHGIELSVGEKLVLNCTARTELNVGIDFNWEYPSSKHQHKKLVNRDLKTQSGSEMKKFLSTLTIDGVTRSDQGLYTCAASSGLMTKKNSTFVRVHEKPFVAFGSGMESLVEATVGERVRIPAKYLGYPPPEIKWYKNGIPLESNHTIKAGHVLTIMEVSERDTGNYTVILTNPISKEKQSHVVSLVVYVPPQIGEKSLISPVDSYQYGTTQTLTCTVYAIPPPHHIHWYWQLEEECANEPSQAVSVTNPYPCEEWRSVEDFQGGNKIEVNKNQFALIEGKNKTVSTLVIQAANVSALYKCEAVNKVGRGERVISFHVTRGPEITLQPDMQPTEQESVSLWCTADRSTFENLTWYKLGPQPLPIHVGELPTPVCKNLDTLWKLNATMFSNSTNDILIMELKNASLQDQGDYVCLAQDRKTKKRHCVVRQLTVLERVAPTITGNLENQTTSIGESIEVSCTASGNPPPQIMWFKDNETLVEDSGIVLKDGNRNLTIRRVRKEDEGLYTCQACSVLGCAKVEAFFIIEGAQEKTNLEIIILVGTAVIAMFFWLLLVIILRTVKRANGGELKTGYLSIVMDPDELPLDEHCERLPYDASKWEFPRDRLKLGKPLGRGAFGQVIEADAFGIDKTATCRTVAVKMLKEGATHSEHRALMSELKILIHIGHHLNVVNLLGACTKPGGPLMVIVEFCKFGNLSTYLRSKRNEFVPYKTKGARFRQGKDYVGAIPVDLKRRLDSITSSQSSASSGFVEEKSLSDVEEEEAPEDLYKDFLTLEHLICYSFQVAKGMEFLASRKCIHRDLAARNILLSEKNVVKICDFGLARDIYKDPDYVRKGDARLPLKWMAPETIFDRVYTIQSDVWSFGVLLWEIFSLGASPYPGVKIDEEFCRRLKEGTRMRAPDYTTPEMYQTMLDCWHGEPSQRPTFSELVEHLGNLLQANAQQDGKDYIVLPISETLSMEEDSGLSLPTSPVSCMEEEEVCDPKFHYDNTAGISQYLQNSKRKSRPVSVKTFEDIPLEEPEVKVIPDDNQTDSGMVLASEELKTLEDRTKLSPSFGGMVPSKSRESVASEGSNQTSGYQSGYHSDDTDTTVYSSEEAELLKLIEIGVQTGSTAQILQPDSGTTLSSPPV
substance,measurement,value
VEGF-A (from UniProt P15692),pKd,10.00
